Source: article PMC5852159, “Hydrogen peroxide positively regulates brassinosteroid signaling through oxidation of the BRASSINAZOLE-RESISTANT1 transcription factor” (Nature Communications, 2018)

Biological target: T1, MBP-BZR1 (maltose-binding protein-BRASSINAZOLE-RESISTANT1 fusion) (Arabidopsis thaliana, UniProt Q8S307 1-336)
T1 construct: BRASSINAZOLE-RESISTANT1 (BZR1), Arabidopsis thaliana; full length cDNA without stop codon, recombined into pMAL2CGW (N-MBP); In part of the pull-downs 1 mM H2O2 stood in the buffer, which oxidises BZR1 (mainly at Cys-63); also called recombinant BZR1; source: E. coli, purified (amylose resin); not shown: MBP, N-terminal, kept
T1 sequence (looked up): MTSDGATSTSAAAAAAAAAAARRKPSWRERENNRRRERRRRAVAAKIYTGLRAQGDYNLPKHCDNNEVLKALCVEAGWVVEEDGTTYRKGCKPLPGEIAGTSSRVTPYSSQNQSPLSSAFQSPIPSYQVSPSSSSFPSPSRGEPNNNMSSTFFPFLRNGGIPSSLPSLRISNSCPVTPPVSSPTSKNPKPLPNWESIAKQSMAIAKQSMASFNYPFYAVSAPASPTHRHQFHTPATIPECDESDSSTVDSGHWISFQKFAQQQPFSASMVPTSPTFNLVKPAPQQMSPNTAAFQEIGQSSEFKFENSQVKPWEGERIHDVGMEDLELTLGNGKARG
Experiment: pull-down; glutathione beads with 1 µg GST fusion incubated with 1 µg MBP or MBP fusion; 20 mM Tris-HCl pH 7.5, 100 mM NaCl, 1 mM EDTA, with or without 1 mM H2O2, 4 °C, 1 h; washed with 300 mM NaCl, 0.1% Nonidet P-40; blots with anti-MBP and anti-GST
Conditions: both partners purified

B1: GST-TRXh5 (enzyme, Arabidopsis thaliana, UniProt Q39241 1-118, looked up)
chain: MAGEGEVIACHTLEVWNEKVKDANESKKLIVIDFTASWCPPCRFIAPVFAEMAKKFTNVVFFKIDVDELQAVAQEFKVEAMPTFVFMKEGNIIDRVVGAAKDEINEKLMKHGGLVASA
notes: thioredoxin h5 (TRXh5), Arabidopsis thaliana; full length cDNA without stop codon, recombined into pDEST15 (N-GST); also called thioredoxin TRXh5; source: bacteria, purified (glutathione beads); not shown: GST, N-terminal, kept
binding result: binds
